Numbered stars: 1 amine (or outer) side, 2 acyl side, 3 side chain; on linkers, the order of the positions; unused ones are H or OH. Square brackets hold non-standard residues; d marks the D form. Side chains are listed from the residue outwards. Ends that are not written are not given here. * marks the point of attachment. Phe(4-CH2NH2) = NCc1ccc(C[C@H](N)C(=O)O)cc1; C18 diacid = O=C(O)CCCCCCCCCCCCCCCCC(=O)*; αMeW = C[C@](N)(Cc1c[nH]c2ccccc12)C(=O)O; C16 diacid = O=C(O)CCCCCCCCCCCCCCC(=O)*; γGlu = O=C(O)[C@H](CCC(=O)[*:2])N[*:1]; Met(O2) = CS(=O)(=O)CC[C@H](N)C(=O)O; αMeF = C[C@](N)(Cc1ccccc1)C(=O)O; αMeD = C[C@](N)(CC(=O)O)C(=O)O; AEEA = NCCOCCOCC(=O)O; Aib = CC(C)(N)C(=O)O
B1: TP587 (peptide)
peptide: H[Aib]QGTFTSDYSKYLDERAA[Phe(4-CH2NH2)]([AEEA-AEEA-γGlu-C18 diacid])DFVQWLLKT-NH2
modifications: N-terminus assumed
SMILES: CC(C)C[C@H](NC(=O)[C@H](Cc1ccc(O)cc1)NC(=O)[C@H](CCCCN)NC(=O)[C@H](CO)NC(=O)[C@H](Cc1ccc(O)cc1)NC(=O)[C@H](CC(=O)O)NC(=O)[C@H](CO)NC(=O)[C@@H](NC(=O)[C@H](Cc1ccccc1)NC(=O)[C@@H](NC(=O)CNC(=O)[C@H](CCC(N)=O)NC(=O)C(C)(C)NC(=O)[C@@H](N)Cc1c[nH]cn1)[C@@H](C)O)[C@@H](C)O)C(=O)N[C@@H](CC(=O)O)C(=O)N[C@@H](CCC(=O)O)C(=O)N[C@@H](CCCNC(=N)N)C(=O)N[C@@H](C)C(=O)N[C@@H](C)C(=O)N[C@@H](Cc1ccc(CNC(=O)COCCOCCNC(=O)COCCOCCNC(=O)CC[C@H](NC(=O)CCCCCCCCCCCCCCCCC(=O)O)C(=O)O)cc1)C(=O)N[C@@H](CC(=O)O)C(=O)N[C@@H](Cc1ccccc1)C(=O)N[C@H](C(=O)N[C@@H](CCC(N)=O)C(=O)N[C@@H](Cc1c[nH]c2ccccc12)C(=O)N[C@@H](CC(C)C)C(=O)N[C@@H](CC(C)C)C(=O)N[C@@H](CCCCN)C(=O)N[C@H](C(N)=O)[C@@H](C)O)C(C)C
B2: TP577 (peptide)
peptide: HXQGTFTSDYSKYLDSRAAXDFVQWLXDT
modifications: Aib (U) at 2; K(PEG2PEG2γEC20-OH) at 20; L-methionine sulphone (2) at 27; C-terminal amide
B3: TP628 (peptide)
peptide: H[Aib]QGTFTSDYSKYLDARAAK([AEEA-γGlu-C18 diacid])DFVQWL[Met(O2)][αMeD]T-NH2
modifications: N-terminus assumed
SMILES: CC(C)C[C@H](NC(=O)[C@H](Cc1ccc(O)cc1)NC(=O)[C@H](CCCCN)NC(=O)[C@H](CO)NC(=O)[C@H](Cc1ccc(O)cc1)NC(=O)[C@H](CC(=O)O)NC(=O)[C@H](CO)NC(=O)[C@@H](NC(=O)[C@H](Cc1ccccc1)NC(=O)[C@@H](NC(=O)CNC(=O)[C@H](CCC(N)=O)NC(=O)C(C)(C)NC(=O)[C@@H](N)Cc1c[nH]cn1)[C@@H](C)O)[C@@H](C)O)C(=O)N[C@@H](CC(=O)O)C(=O)N[C@@H](C)C(=O)N[C@@H](CCCNC(=N)N)C(=O)N[C@@H](C)C(=O)N[C@@H](C)C(=O)N[C@@H](CCCCNC(=O)COCCOCCNC(=O)CC[C@H](NC(=O)CCCCCCCCCCCCCCCCC(=O)O)C(=O)O)C(=O)N[C@@H](CC(=O)O)C(=O)N[C@@H](Cc1ccccc1)C(=O)N[C@H](C(=O)N[C@@H](CCC(N)=O)C(=O)N[C@@H](Cc1c[nH]c2ccccc12)C(=O)N[C@@H](CC(C)C)C(=O)N[C@@H](CCS(C)(=O)=O)C(=O)N[C@@](C)(CC(=O)O)C(=O)N[C@H](C(N)=O)[C@@H](C)O)C(C)C
B4: TP630 (peptide)
peptide: H[Aib]QGTFTSDYSKYLDARAAK([AEEA-AEEA-γGlu-C16 diacid])DFVQ[αMeW]L[Met(O2)]DT-NH2
modifications: N-terminus assumed
SMILES: CC(C)C[C@H](NC(=O)[C@H](Cc1ccc(O)cc1)NC(=O)[C@H](CCCCN)NC(=O)[C@H](CO)NC(=O)[C@H](Cc1ccc(O)cc1)NC(=O)[C@H](CC(=O)O)NC(=O)[C@H](CO)NC(=O)[C@@H](NC(=O)[C@H](Cc1ccccc1)NC(=O)[C@@H](NC(=O)CNC(=O)[C@H](CCC(N)=O)NC(=O)C(C)(C)NC(=O)[C@@H](N)Cc1c[nH]cn1)[C@@H](C)O)[C@@H](C)O)C(=O)N[C@@H](CC(=O)O)C(=O)N[C@@H](C)C(=O)N[C@@H](CCCNC(=N)N)C(=O)N[C@@H](C)C(=O)N[C@@H](C)C(=O)N[C@@H](CCCCNC(=O)COCCOCCNC(=O)COCCOCCNC(=O)CC[C@H](NC(=O)CCCCCCCCCCCCCCC(=O)O)C(=O)O)C(=O)N[C@@H](CC(=O)O)C(=O)N[C@@H](Cc1ccccc1)C(=O)N[C@H](C(=O)N[C@@H](CCC(N)=O)C(=O)N[C@@](C)(Cc1c[nH]c2ccccc12)C(=O)N[C@@H](CC(C)C)C(=O)N[C@@H](CCS(C)(=O)=O)C(=O)N[C@@H](CC(=O)O)C(=O)N[C@H](C(N)=O)[C@@H](C)O)C(C)C
B5: TP640 (peptide)
peptide: H[Aib]QGTFTSDYSKLLDARAAK([AEEA-AEEA-γGlu-C18 diacid])DFVQWL[Met(O2)][αMeD]T-NH2
modifications: N-terminus assumed
SMILES: CC(C)C[C@H](NC(=O)[C@H](CC(C)C)NC(=O)[C@H](CCCCN)NC(=O)[C@H](CO)NC(=O)[C@H](Cc1ccc(O)cc1)NC(=O)[C@H](CC(=O)O)NC(=O)[C@H](CO)NC(=O)[C@@H](NC(=O)[C@H](Cc1ccccc1)NC(=O)[C@@H](NC(=O)CNC(=O)[C@H](CCC(N)=O)NC(=O)C(C)(C)NC(=O)[C@@H](N)Cc1c[nH]cn1)[C@@H](C)O)[C@@H](C)O)C(=O)N[C@@H](CC(=O)O)C(=O)N[C@@H](C)C(=O)N[C@@H](CCCNC(=N)N)C(=O)N[C@@H](C)C(=O)N[C@@H](C)C(=O)N[C@@H](CCCCNC(=O)COCCOCCNC(=O)COCCOCCNC(=O)CC[C@H](NC(=O)CCCCCCCCCCCCCCCCC(=O)O)C(=O)O)C(=O)N[C@@H](CC(=O)O)C(=O)N[C@@H](Cc1ccccc1)C(=O)N[C@H](C(=O)N[C@@H](CCC(N)=O)C(=O)N[C@@H](Cc1c[nH]c2ccccc12)C(=O)N[C@@H](CC(C)C)C(=O)N[C@@H](CCS(C)(=O)=O)C(=O)N[C@@](C)(CC(=O)O)C(=O)N[C@H](C(N)=O)[C@@H](C)O)C(C)C
B6: TP594 (peptide)
peptide: HXQGTFTSDYSKYLDARAAXXFVQWLXDT
modifications: Aib (U) at 2; K(PEG2PEG2γEC20-OH) at 20; αMD at 21; L-methionine sulphone (2) at 27; C-terminal amide
B7: TP595 (peptide)
peptide: H[Aib]QGTFFSDYSKYLDARAAK([AEEA-AEEA-γGlu-C18 diacid])DFVQWL[Met(O2)]DT-NH2
modifications: N-terminus assumed
SMILES: CC(C)C[C@H](NC(=O)[C@H](Cc1ccc(O)cc1)NC(=O)[C@H](CCCCN)NC(=O)[C@H](CO)NC(=O)[C@H](Cc1ccc(O)cc1)NC(=O)[C@H](CC(=O)O)NC(=O)[C@H](CO)NC(=O)[C@H](Cc1ccccc1)NC(=O)[C@H](Cc1ccccc1)NC(=O)[C@@H](NC(=O)CNC(=O)[C@H](CCC(N)=O)NC(=O)C(C)(C)NC(=O)[C@@H](N)Cc1c[nH]cn1)[C@@H](C)O)C(=O)N[C@@H](CC(=O)O)C(=O)N[C@@H](C)C(=O)N[C@@H](CCCNC(=N)N)C(=O)N[C@@H](C)C(=O)N[C@@H](C)C(=O)N[C@@H](CCCCNC(=O)COCCOCCNC(=O)COCCOCCNC(=O)CC[C@H](NC(=O)CCCCCCCCCCCCCCCCC(=O)O)C(=O)O)C(=O)N[C@@H](CC(=O)O)C(=O)N[C@@H](Cc1ccccc1)C(=O)N[C@H](C(=O)N[C@@H](CCC(N)=O)C(=O)N[C@@H](Cc1c[nH]c2ccccc12)C(=O)N[C@@H](CC(C)C)C(=O)N[C@@H](CCS(C)(=O)=O)C(=O)N[C@@H](CC(=O)O)C(=O)N[C@H](C(N)=O)[C@@H](C)O)C(C)C
B8: TP609 (peptide)
peptide: H[Aib]QGTFTSDYSKYLDARAAQ[Phe(4-CH2NH2)]([AEEA-AEEA-γGlu-C18 diacid])FVQWLL[αMeD]T-NH2
modifications: N-terminus assumed
SMILES: CC(C)C[C@H](NC(=O)[C@H](Cc1ccc(O)cc1)NC(=O)[C@H](CCCCN)NC(=O)[C@H](CO)NC(=O)[C@H](Cc1ccc(O)cc1)NC(=O)[C@H](CC(=O)O)NC(=O)[C@H](CO)NC(=O)[C@@H](NC(=O)[C@H](Cc1ccccc1)NC(=O)[C@@H](NC(=O)CNC(=O)[C@H](CCC(N)=O)NC(=O)C(C)(C)NC(=O)[C@@H](N)Cc1c[nH]cn1)[C@@H](C)O)[C@@H](C)O)C(=O)N[C@@H](CC(=O)O)C(=O)N[C@@H](C)C(=O)N[C@@H](CCCNC(=N)N)C(=O)N[C@@H](C)C(=O)N[C@@H](C)C(=O)N[C@@H](CCC(N)=O)C(=O)N[C@@H](Cc1ccc(CNC(=O)COCCOCCNC(=O)COCCOCCNC(=O)CC[C@H](NC(=O)CCCCCCCCCCCCCCCCC(=O)O)C(=O)O)cc1)C(=O)N[C@@H](Cc1ccccc1)C(=O)N[C@H](C(=O)N[C@@H](CCC(N)=O)C(=O)N[C@@H](Cc1c[nH]c2ccccc12)C(=O)N[C@@H](CC(C)C)C(=O)N[C@@H](CC(C)C)C(=O)N[C@@](C)(CC(=O)O)C(=O)N[C@H](C(N)=O)[C@@H](C)O)C(C)C

Target: human Glucagon receptor (GCGR) (human, UniProt P47871 26-477)
Sequence (P47871 26-477): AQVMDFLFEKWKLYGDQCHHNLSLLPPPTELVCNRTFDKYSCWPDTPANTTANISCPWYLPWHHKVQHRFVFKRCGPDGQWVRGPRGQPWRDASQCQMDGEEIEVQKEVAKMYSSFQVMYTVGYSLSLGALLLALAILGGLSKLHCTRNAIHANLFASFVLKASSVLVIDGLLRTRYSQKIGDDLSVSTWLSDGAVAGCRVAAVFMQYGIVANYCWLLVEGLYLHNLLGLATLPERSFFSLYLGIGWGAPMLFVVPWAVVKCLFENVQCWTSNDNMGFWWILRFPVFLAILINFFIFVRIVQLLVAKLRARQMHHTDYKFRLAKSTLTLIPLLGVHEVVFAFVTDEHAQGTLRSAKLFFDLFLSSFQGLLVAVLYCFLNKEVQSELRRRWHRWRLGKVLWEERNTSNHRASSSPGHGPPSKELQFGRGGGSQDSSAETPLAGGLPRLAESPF
Experiment: cell-based or functional assay

Binder | GCGR EC50 human
B1 | 2.49 nM
H[Aib]QGTFTSDYSKYLDARAAK([AEEA-AEEA-γGlu-C20‑OH])D[αMeF]VQWL[Met(O2)]DT-NH2 [TP590] | 5.03 nM
B2 | 4.54 nM
H[dS]QGTFTSDYSKYLE[Aib]RAAK([AEEA-AEEA-γGlu-C20‑OH])DFVQWLL[Aib]TK-{γGlu-NH2} [TP579] | > 19.9 nM
HXQGTFTSDXSKYLDARAAQDFVQWLLDT (D-Ser (s) at 2; Nle(1,2,3-triazole-4-C4-Lys-C16) at 10; C-terminal amide) [TP831] | 0.14 nM
HXQGTFTSDXSKYLDARAAQDFVQWLLDT (D-Ser (s) at 2; Nle(1,2,3-triazole-4-C15) at 10; C-terminal amide) [TP829] | 1.06 nM
B3 | 0.86 nM
B4 | 0.89 nM
B5 | 0.69 nM
H[Aib]QGTFTSDYSKYLD[Aib]RAAQDFVK([AEEA-AEEA-γGlu-C20‑OH])WL[Met(O2)]DT-NH2 [TP576] | 1.45 nM
HXQGTFTSDXSKYLDARAAQDFVQWLLDT (D-Ser (s) at 2; Nle(1,2,3-triazole-4-γE-C16) at 10; C-terminal amide) [TP830] | 0.14 nM
B6 | 4.95 nM
H[Aib]QGTFTSDYSKYLDERAA[Phe(4-CH2NH2)]([AEEA-AEEA-γGlu-C20‑OH])DFVQWLLKT-NH2 [TP586] | 4.95 nM
B7 | 0.4 nM
B8 | 0.36 nM

Target: human GLP-1 receptor (GLP1R) (human, UniProt P43220 24-463)
Experiment: cell-based or functional assay

Binder | GLP1R EC50 human
B1 | 0.41 nM
H[Aib]QGTFTSDYSKYLDARAAK([AEEA-AEEA-γGlu-C20‑OH])D[αMeF]VQWL[Met(O2)]DT-NH2 [TP590] | 1.64 nM
B2 | 1.67 nM
H[dS]QGTFTSDYSKYLE[Aib]RAAK([AEEA-AEEA-γGlu-C20‑OH])DFVQWLL[Aib]TK-{γGlu-NH2} [TP579] | 14.7 nM
HXQGTFTSDXSKYLDARAAQDFVQWLLDT (D-Ser (s) at 2; Nle(1,2,3-triazole-4-C4-Lys-C16) at 10; C-terminal amide) [TP831] | 0.08 nM
HXQGTFTSDXSKYLDARAAQDFVQWLLDT (D-Ser (s) at 2; Nle(1,2,3-triazole-4-C15) at 10; C-terminal amide) [TP829] | 0.68 nM
B3 | 1.39 nM
B4 | 0.29 nM
B5 | 0.84 nM
H[Aib]QGTFTSDYSKYLD[Aib]RAAQDFVK([AEEA-AEEA-γGlu-C20‑OH])WL[Met(O2)]DT-NH2 [TP576] | 1.88 nM
HXQGTFTSDXSKYLDARAAQDFVQWLLDT (D-Ser (s) at 2; Nle(1,2,3-triazole-4-γE-C16) at 10; C-terminal amide) [TP830] | 0.22 nM
B6 | 2.6 nM
H[Aib]QGTFTSDYSKYLDERAA[Phe(4-CH2NH2)]([AEEA-AEEA-γGlu-C20‑OH])DFVQWLLKT-NH2 [TP586] | 1.23 nM
B7 | > 20 nM
B8 | 0.42 nM
